B1: Cytochrome c-553 wild type, A0A1E7EP28 (protein)
chain: MKFAIFATLLVSASAFSINKADVAKAAAAGAIAFSVAAGPAFAGDVGAGEQIFNANCAACHAGGQNVIMPEKTLEKEALDQYLSGGRSEKSVMTQVTNGKNAMPAFGGRLSEEDIANVASYVISSAEAGWEE
B2: Cytochrome c-553 wild type, B8C6L5 (protein)
chain: MKLTIVAALIASASAWTTPKSFESVKAAVAGAAVTAGVAVSPAFAGDVGAGEQIFNANCAACHAGGQNVIMPDKTLEKEALEQYLAGGRNEKAVMTQVTNGKNAMPAFGGRLSDEDIANVASYVIATSEAGWD

Conditions: pH 7.4, UV/Vis spectroscopy, HEPES, transition: 2, reversible: > 90% (Yes), whole UniProt chain shown; for denaturant m value / denaturant midpoint (higher = more stable) / unfolding free energy: 15 °C, GdnHCl, potassium ferricyanide; for Tm / unfolding enthalpy (van 't Hoff): Thermal
[1] = Fragilariopsis cylindrus CCMP1102

Protein	denaturant m value [1] [kcal/mol/M]	denaturant midpoint (higher = more stable) [1] [M]	unfolding free energy [1] [kcal/mol]	Tm [1] [°C]	unfolding enthalpy (van 't Hoff) [1] [kcal/mol]	denaturant m value (Thalassiosira pseudonana) [kcal/mol/M]	denaturant midpoint (higher = more stable) (Thalassiosira pseudonana) [M]	unfolding free energy (Thalassiosira pseudonana) [kcal/mol]	Tm (Thalassiosira pseudonana) [°C]	unfolding enthalpy (van 't Hoff) (Thalassiosira pseudonana) [kcal/mol]
B1	4.6	0.5	2.15	28.8	44.7	–	–	–	–	–
B2	–	–	–	–	–	2.1	1.2	2.63	39.1	38.7
